Legend:
[1] = biological target: T1, PARP12-GFP fusion protein (UniProt Q9H0J9 1-701); experiment: co-immunoprecipitation: anti-GFP IP from lysate of transfected HeLa S3 cells (0 or 20 nM pateamine A, 30 min), immunoblot with anti-LSM1
T1 construct: Expressed in HeLa S3 cells from pEGFP-C1; not shown: EGFP (green fluorescent protein) encoded by vector pEGFP-C1, located N-terminal (5') to the PARP
T1 sequence (looked up): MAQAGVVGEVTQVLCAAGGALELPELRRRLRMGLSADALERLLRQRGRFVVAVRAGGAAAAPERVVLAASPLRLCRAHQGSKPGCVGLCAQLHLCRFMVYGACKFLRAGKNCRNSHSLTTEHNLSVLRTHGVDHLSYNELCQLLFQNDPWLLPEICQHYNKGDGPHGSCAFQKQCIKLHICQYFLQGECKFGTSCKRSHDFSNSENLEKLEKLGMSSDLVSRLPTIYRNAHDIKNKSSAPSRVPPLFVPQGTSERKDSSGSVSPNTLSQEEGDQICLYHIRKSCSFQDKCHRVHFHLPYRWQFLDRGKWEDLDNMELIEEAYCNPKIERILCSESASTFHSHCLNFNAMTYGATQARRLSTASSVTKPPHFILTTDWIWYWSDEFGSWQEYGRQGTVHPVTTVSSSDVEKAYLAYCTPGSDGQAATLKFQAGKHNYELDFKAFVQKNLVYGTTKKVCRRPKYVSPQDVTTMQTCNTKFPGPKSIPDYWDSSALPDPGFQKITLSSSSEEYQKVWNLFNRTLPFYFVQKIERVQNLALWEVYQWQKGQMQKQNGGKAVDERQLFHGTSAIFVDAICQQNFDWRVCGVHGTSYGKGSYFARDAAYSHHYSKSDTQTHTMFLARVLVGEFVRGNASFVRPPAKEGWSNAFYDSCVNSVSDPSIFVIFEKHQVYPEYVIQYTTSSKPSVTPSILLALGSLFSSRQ
Method: (§1) FIG. 25C is a picture of several immunoblots of a 4-12% SDS-PAGE gel containing proteins immunoprecipitated with an anti-GFP antibody from lysate from HeLa S3 cells transfected with a pEGFP-C1 plasmid expressing GFP, PARP5A-GFP, PARP12-GFP, PARP13-GFP, PARP13.1-GFP, or PARP15-GFP following treatment with 0 or 20 nM pateamine A for 30 minutes. The immunoblots were developed using one of the following antibodies: anti-Agog, anti-DDX6, anti-LSM1, anti-PABP, anti-FMRP, anti-eIF1A, anti-eIF2a, anti-eIF3η, anti-eIF4A1, and anti-eIF4E.
(§2) Data from a separate set of experiments indicate that several stress granule-associated proteins bind to the PARP13-GFP, PARP12-GFP, and PARP5A-GFP fusion proteins. In these experiments, HeLa S3 cells were transfected with a pEGFP-C1 plasmid encoding a PARP13-GFP, PARP12-GFP, or PARP5A-GFP fusion protein and treated with 0 or 20 nM pateamine A for 30 minutes. Cell lysates from the cells were immunoprecipitated using an anti-GFP antibody and the immunoprecipitated proteins were electrophoresed using 4-12% SDS-PAGE. The resulting proteins were transferred to a membrane and immunoblotted using commercially-available antibodies specific for different stress granule-associated proteins: Ago2, DDX6, LSM1, PABP, FMRP, eIF1A, eIF2α, eIF3η, eIF4A1, and eIF4E.

[2] = biological target: T2, PARP5A-GFP fusion protein (UniProt O95271 1-1327); experiment: as above
T2 construct: Expressed in HeLa S3 cells from pEGFP-C1; also called tankyrase 1-GFP; not shown: EGFP (green fluorescent protein) encoded by vector pEGFP-C1, located N-terminal (5') to the PARP
T2 sequence (looked up): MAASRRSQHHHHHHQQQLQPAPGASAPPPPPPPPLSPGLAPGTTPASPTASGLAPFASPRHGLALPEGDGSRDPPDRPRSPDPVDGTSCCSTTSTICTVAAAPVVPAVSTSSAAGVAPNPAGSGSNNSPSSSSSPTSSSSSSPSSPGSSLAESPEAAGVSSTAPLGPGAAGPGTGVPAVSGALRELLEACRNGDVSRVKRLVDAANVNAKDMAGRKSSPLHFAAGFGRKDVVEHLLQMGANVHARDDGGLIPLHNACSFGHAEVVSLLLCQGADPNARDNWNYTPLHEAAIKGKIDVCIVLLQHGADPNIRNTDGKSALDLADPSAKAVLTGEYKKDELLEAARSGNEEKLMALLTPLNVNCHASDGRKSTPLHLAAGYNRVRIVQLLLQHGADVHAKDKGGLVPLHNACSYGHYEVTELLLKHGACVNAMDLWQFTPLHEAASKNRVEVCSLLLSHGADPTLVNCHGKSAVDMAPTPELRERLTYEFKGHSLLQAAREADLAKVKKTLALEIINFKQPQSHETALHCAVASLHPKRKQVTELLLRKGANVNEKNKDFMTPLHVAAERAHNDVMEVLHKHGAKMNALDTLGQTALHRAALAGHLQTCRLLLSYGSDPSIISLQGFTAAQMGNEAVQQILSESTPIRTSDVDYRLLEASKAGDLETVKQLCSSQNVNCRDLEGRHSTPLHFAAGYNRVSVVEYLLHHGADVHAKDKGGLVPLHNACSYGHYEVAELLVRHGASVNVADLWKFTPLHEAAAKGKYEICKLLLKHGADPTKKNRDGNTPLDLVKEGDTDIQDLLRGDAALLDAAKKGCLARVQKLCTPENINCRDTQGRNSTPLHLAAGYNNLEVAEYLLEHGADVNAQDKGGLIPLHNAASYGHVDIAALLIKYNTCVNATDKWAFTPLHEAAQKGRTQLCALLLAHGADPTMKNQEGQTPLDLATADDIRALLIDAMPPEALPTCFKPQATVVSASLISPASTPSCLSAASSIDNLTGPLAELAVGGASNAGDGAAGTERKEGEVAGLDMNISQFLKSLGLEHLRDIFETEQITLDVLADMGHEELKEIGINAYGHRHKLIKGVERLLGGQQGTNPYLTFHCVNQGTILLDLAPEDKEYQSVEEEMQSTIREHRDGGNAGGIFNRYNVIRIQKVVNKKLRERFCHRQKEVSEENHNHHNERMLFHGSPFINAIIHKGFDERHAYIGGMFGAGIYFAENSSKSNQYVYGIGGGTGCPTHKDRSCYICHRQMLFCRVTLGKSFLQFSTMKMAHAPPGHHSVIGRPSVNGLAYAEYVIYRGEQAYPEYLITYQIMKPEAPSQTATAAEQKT
Method: as §1, §2

B1: LSM1 (other, human (HeLa S3 cells), UniProt O15116 1-133, looked up)
single chain: MNYMPGTASLIEDIDKKHLVLLRDGRTLIGFLRSIDQFANLVLHQTVERIHVGKKYGDIPRGIFVVRGENVVLLGEIDLEKESDTPLQQVSIEEILEEQRVEQQTKLEAEKLKVQALKDRGLSIPRADTLDEY
notes: endogenous protein in the cell lysate; member of the group m8
- binding result [1]: no binding
- binding result [2]: no binding
